In US20260217797A1 (Takeda / Millennium, published 2026):
Changes are numbered by the printed parent chain. Read-outs that look alike come from different tables or passages of the source.

Columns and labels:
[1] = molecular target: T1, SARS-CoV-2 wild type spike protein (on reporter virus particles) (SARS-CoV-2, UniProt P0DTC2 14-1273); assay: cell-based or functional assay
[2] = molecular target: T1, SARS-CoV-2 wild type spike protein (on …); assay: cell-based or functional assay; remark: listed apart in the source
MERS-CoV [change] = molecular target: T2, MERS-CoV [change] (MERS-CoV, UniProt K9N5Q8 18-725); assay: Octet BLI, IgG, monovalent
T2 sequence: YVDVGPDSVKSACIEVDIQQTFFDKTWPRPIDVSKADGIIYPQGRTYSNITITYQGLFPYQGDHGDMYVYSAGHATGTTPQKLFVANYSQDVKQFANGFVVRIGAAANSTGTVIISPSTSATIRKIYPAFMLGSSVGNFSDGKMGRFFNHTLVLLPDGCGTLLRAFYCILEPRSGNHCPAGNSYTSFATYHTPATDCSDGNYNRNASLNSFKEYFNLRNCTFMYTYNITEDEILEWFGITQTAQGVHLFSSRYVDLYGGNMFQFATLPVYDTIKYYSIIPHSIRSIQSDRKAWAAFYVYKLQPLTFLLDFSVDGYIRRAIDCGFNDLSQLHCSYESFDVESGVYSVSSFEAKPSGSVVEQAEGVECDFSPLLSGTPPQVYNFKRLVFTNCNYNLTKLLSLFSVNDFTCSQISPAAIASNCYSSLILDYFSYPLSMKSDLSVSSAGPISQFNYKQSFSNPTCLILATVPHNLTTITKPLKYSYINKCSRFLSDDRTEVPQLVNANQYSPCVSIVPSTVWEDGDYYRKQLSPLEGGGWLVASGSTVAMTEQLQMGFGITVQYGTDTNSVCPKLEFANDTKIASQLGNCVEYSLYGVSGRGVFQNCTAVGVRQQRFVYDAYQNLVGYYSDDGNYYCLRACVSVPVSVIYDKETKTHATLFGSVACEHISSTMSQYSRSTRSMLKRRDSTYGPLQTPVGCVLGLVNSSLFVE

SARS-CoV1 Spike [change] [3] = molecular target: T3, SARS-CoV1 Spike [change] (SARS-CoV-1, UniProt P59594 14-667); assay: Octet BLI, IgG, monovalent
SARS-CoV-2 Spike S1-His [4] = molecular target: T4, SARS-CoV-2 Spike S1-His (SARS-CoV-2, UniProt P0DTC2 16-685); assay: Octet BLI, IgG, monovalent
SARS-CoV-2 S Trimer = SARS-CoV-2 S Trimer (SARS-CoV-2, UniProt P0DTC2 16-1213); assay: Octet BLI, IgG, avid
[5] = molecular target: T1, SARS-CoV-2 wild type spike protein (on …); assay: cell-based or functional assay; remark: listed apart in the source
SARS-CoV1 Spike [change] [6] = molecular target: T3, SARS-CoV1 Spike [change]; assay: Octet BLI, IgG, monovalent; remark: listed apart in the source
SARS-CoV-2 Spike S1-His [7] = molecular target: T4, SARS-CoV-2 Spike S1-His; assay: Octet BLI, IgG, monovalent; remark: listed apart in the source

B1: A-10 (antibody, V domains shown)
VH: QVQLVQSGGGVVQPGRSLRLSCAASGFTFSSYGMHWVRQAPGKGLEWVAVISYDGSNKYYTDSVKGRFTISRDNSKNTLYLQMNSLRAEDTAVYYCAKDLPREVYYDILTGYDNPYYYYGMDVWGQGTTVTVSS
VL: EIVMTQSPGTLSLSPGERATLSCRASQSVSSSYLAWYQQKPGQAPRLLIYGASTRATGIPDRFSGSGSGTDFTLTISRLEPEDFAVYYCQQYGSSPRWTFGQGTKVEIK
PsV Neut Assay IC50 [1]: 1.29 nM
PSV IC50 [2]: 0.194 mg/L
binding result (MERS-CoV [change]): no binding
binding result (SARS-CoV1 Spike [change] [3]): no binding
Kd (SARS-CoV-2 Spike S1-His [4]): 9.59 nM
Kd (SARS-CoV-2 S Trimer): 0.854 nM

B2: A-2 (antibody, V domains shown)
VH: EVQLVESGGGLIQPGGSLRLSCAASGFTVSSNYMSWVRQAPGKGLEWVSIIYSGGSTYYADSVKGRFTISRDNSKNTLYLQMNSLRAEDTAVYYCARAPSGEYGDPIYYWGQGTLVTVSS
VL: QSVLTQPPSASASLGASVKLTCTLSSGHSTYTIAWHQQQPEKGPRYLMKLNSDGSHSKGDGIPDRFSGSSSGAERYLTISSLQSEDEADYYCQTWGTGNHWVFGGGTKLTVL
PsV Neut Assay IC50 [1]: 0.169 nM
PSV IC50 [2]: 0.025 mg/L
binding result (MERS-CoV [change]): no binding
binding result (SARS-CoV1 Spike [change] [3]): no binding
Kd (SARS-CoV-2 Spike S1-His [4]): 14.5 nM
Kd (SARS-CoV-2 S Trimer): 1.14 nM

B3: A-1 (antibody, V domains shown)
VH: EVQLVESGGGVVQPGGSLRLSCAASGFAFSTYWMHWVRQAPGKGLVWVSRINGDGSGTNYADSVKGRFTISRDNAKSTLYLQMNSLRTEDTAVYYCTRTAGRGAYDFGRFDPWGQGTLVTVSS
VL: DIVLTQTPLSLPVTPGEPASISCRSSQSLLHSNGYNYLDWYLQKAGQSPQLLVFLGSNRASGVPDRFSGSASGTDFTLKISRVEAEDVGVYYCMQALQIPITFGQGTRLEIK
PsV Neut Assay IC50 [1]: 0.116 nM
PSV IC50 [2]: 0.017 mg/L
binding result (MERS-CoV [change]): no binding
binding result (SARS-CoV1 Spike [change] [3]): no binding
Kd (SARS-CoV-2 Spike S1-His [4]): 9.6 nM
Kd (SARS-CoV-2 S Trimer): 0.865 nM

B4: A-23 (antibody, V domains shown)
VH: EVQLVESGGGLVQPGRSLRLSCAASGFTFDDYAMHWVRQAPGKGLEWVSGISWNSGTIGYADSVKGRFIISRDNAKNSLYLQMNSLRGEDMALYYCGKDRKREDPSLGGMDVWGQGTTVTVSS
VL: SYVLTQPPSVSVAPGQTARITCGGNNIGSKSVHWYQQKPGQAPVLVVYDDTDRPSGIPERFSGSNSGNTATLTISRVEAGDEADYYCQVWDSSSDHYVFGTGTKVTVL
WT PsV IC50 [5]: 0.539 nM
binding result (SARS-CoV1 Spike [change] [6]): no binding
Kd (SARS-CoV-2 Spike S1-His [7]): 2.11 nM

B5: A-23.1 (antibody, V domains shown)
VH: B4 VH with F29I, S55G
VL: B4 VL with G23L, S93E
WT PsV IC50 [5]: 0.423 nM
binding result (SARS-CoV1 Spike [change] [6]): no binding
Kd (SARS-CoV-2 Spike S1-His [7]): 0.829 nM

B6: A-23.2 (antibody, V domains shown)
VH: B4 VH with I51T, G97V
VL: B4 VL with S92V, H96S
WT PsV IC50 [5]: 0.416 nM
binding result (SARS-CoV1 Spike [change] [6]): no binding
Kd (SARS-CoV-2 Spike S1-His [7]): 0.454 nM

B7: A-21 (antibody, V domains shown)
VH: EVQLVESGGGLVQPGGSLRLSCAASGFTFSRYWMHWVRQAPGKGLVWVSRINSDGSSTTYADSVKGRFTISRDNAKNTLYLQMNSLRAEDTAVYYCARELYYYDSRGAEEGEGWFDPWGQGTLVTVSS
VL: QSVLTQPPSVSGAPGQRVTISCTGISSNIGAGYDVHWYQQLPGTAPKLLIYGNSNRPSGVPDRFSASKSGTSAPLAITGLQAEDEADYYCQSSDRSLSGSVFGTGTKVTVL
WT PsV IC50 [5]: 2.78 nM
Kd (SARS-CoV1 Spike [change] [6]): 9.03 nM
Kd (SARS-CoV-2 Spike S1-His [7]): 0.529 nM

B8: A-21.2 (antibody, V domains shown)
VH: B7 VH
VL: B7 VL with G32Q, S58R, L97V
WT PsV IC50 [5]: 2.63 nM
Kd (SARS-CoV1 Spike [change] [6]): 7.93 nM
Kd (SARS-CoV-2 Spike S1-His [7]): 0.195 nM

B9: A-21.3 (antibody, V domains shown)
VH: B7 VH with S30R, V46E, K65E, S105R
VL: B7 VL with G32E, S58R, S92V, S96Y
WT PsV IC50 [5]: 0.946 nM
Kd (SARS-CoV1 Spike [change] [6]): 0.893 nM
Kd (SARS-CoV-2 Spike S1-His [7]): 0.241 nM

B10: A-22.1 (antibody, V domains shown)
VH: not shown
VL: EIVLTQSPGTLSLSPGERATLSCRASQTVRSDLAWYQQKPGQAPRLLIYGASTRATDISDRFSGSGSGTEFTLTISSLQSEDFAVYYCQQYYEWPPHSDSFGGGTKVEIK
WT PsV IC50 [5]: 14.3 nM
Kd (SARS-CoV1 Spike [change] [6]): 3.68 nM
Kd (SARS-CoV-2 Spike S1-His [7]): 0.278 nM

B11: A-22.3 (antibody, V domains shown)
VH: not shown
VL: B10 VL with A51G
WT PsV IC50 [5]: 7.1 nM
Kd (SARS-CoV1 Spike [change] [6]): 4.77 nM
Kd (SARS-CoV-2 Spike S1-His [7]): 0.245 nM

B12: A-22.2 (antibody, V domains shown)
VH: not shown
VL: B10 VL with R24S, A51G
WT PsV IC50 [5]: 3.3 nM
Kd (SARS-CoV1 Spike [change] [6]): 10.1 nM
Kd (SARS-CoV-2 Spike S1-His [7]): 0.254 nM

B13: A-20.2 (antibody, V domains shown)
VH: QVQLVQSGGGVVQPGRSLRLSCAASGFTFDNFAMHWVRQAPGKGLEWVAVIEYDGINKYYADSVKGRFTISRGNSKNTLSLQMNSLRAEDTAVYYCARAQNYYDRYGTLQLDAFDIWGQGTLVTVSS
VL: AIQMTQSPSSLSASVGDRVTITCRASQGIRNDLGWYQQKPGKAPKLLIYDASSLQSGVPSRFSGSGSGTDFTLTISSLQPEDFATYYCLQDYNYPLTFGGGTKVEIK
WT PsV IC50 [5]: 1.06 nM
Kd (SARS-CoV1 Spike [change] [6]): 1.74 nM
Kd (SARS-CoV-2 Spike S1-His [7]): 0.293 nM

B14: A-20.3 (antibody, V domains shown)
VH: B13 VH with E52L, K58D, Y106H
VL: B13 VL with Q27D, D50E, D91N
WT PsV IC50 [5]: 1.51 nM
Kd (SARS-CoV1 Spike [change] [6]): 3.52 nM
Kd (SARS-CoV-2 Spike S1-His [7]): 0.366 nM

B15: A-24.1 (antibody, V domains shown)
VH: EVQLVESGGGLVKPGRSLRLSCAASGFTFADYTMSWFRQAPGKGLEWVGFIRSEPYGGTTEYAASVKGRFTISRDDSKSIAYLQMNSLKTEDTAVYYCSRDPWYCSGGDCYAVTGSWFDPWGQGTLVTVSS
VL: DIQMTQSPSSLSASVGDRVTITCQASQDIKKYLNWYQQKPGKAPKLLIYDVSNLETGVPSRFSGSGSGTDFTFTISSLQPEDVAIYYCQQYDNLPQTFGQGTKVEIK
WT PsV IC50 [5]: 0.0657 nM
binding result (SARS-CoV1 Spike [change] [6]): no binding
Kd (SARS-CoV-2 Spike S1-His [7]): 0.999 nM

B16: A-24.3 (antibody, V domains shown)
VH: B15 VH
VL: B15 VL with Q27R, N93Q, K107E
WT PsV IC50 [5]: 0.0454 nM
binding result (SARS-CoV1 Spike [change] [6]): no binding
Kd (SARS-CoV-2 Spike S1-His [7]): 0.479 nM

B17: A-24.2 (antibody, V domains shown)
VH: B15 VH
VL: B15 VL with K31Q, V51Q, D92W
WT PsV IC50 [5]: 0.116 nM
binding result (SARS-CoV1 Spike [change] [6]): no binding
Kd (SARS-CoV-2 Spike S1-His [7]): 0.289 nM

B18: A-24 (antibody, V domains shown)
VH: B15 VH with T33A, E54K
VL: B15 VL
WT PsV IC50 [5]: 0.039 nM
binding result (SARS-CoV1 Spike [change] [6]): no binding
Kd (SARS-CoV-2 Spike S1-His [7]): 5.36 nM

B19: A-11 (antibody, V domains shown)
VH: EVQLVESGAEVKKPGSSVMVSCKASGGTFSRYAISWVRQAPGQGLEWMGGIIPVFGIVHYAQKFQGRVTITADKSTSTAYMELSSLRSEDTAAYYCARDRQQQPSPYYYHGMDVWGQGTTVTVSS
VL: DIRLTQSPSSLSASVGDRVTITCQASQDISNYLNWYQQKPGKAPKLLIYDASNLETGVPTRFSGSGSGTDFTFTISSLQPEDIATYYCQQYDNLPLFGGGTKVEIK
PsV Neut Assay IC50 [1]: 0.613 nM
PSV IC50 [2]: 0.092 mg/L
binding result (MERS-CoV [change]): no binding
binding result (SARS-CoV1 Spike [change] [3]): no binding
Kd (SARS-CoV-2 Spike S1-His [4]): 6.92 nM
Kd (SARS-CoV-2 S Trimer): 1.29 nM
